Reference: patent US20070225241A1

Molecular target: calf thymus RNA Polymerase II (12-subunit enzyme, Form II; core of Form I) (bovine (calf thymus))
Assay: quantification of seven Coomassie stained SDS-PAGE gel bands of purified or reconstituted FI RNAPII

- average molar ratio of Gdown1 to Rpb5 in FI RNAPII: 1 molar ratio
Substance: native calf thymus Gdown1 (41 kD polypeptide of Form I RNAPII) (from UniProt Q17QE3 1-370)
